In patent US20040063907A1 (published 2004):

T1: purified recombinant C35 protein generated in E. coli (human, UniProt Q9BRT3 1-115, limits assumed)
T1 construct: also called hC35 protein; soluble C35 protein
T1 sequence: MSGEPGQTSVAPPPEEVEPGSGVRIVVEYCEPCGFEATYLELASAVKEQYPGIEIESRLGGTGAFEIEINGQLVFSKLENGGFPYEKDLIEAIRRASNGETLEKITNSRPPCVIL

T2: C35 protein, bacterially synthesized (recombinant human C35 purified from E. coli) (human, UniProt Q9BRT3 1-115, limits assumed)
T2 construct: also called hC35; recombinant C35 protein
T2 sequence: T1 sequence

T3: C35 as expressed by cells or tissue (flow cytometry, immunohistochemistry) (human, UniProt Q9BRT3 2-112)
T3 construct: also called endogenous C35
T3 sequence: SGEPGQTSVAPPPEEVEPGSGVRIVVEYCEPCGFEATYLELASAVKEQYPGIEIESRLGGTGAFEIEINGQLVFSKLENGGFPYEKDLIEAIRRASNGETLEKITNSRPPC

T4: C35 polypeptide, as expressed by human tumor cells and breast tumor tissue (human, UniProt Q9BRT3 2-112)
T4 construct: 115 amino acid protein with a predicted prenylation motif CVIL at 112-115; It was detected on unfixed, non-permeabilized tumor cells and in paraffin sections; also called C35 protein; C35 antigen
T4 sequence: T3 sequence

B1: 1E11 monoclonal antibody (antibody, mouse IgG1, V domains shown)
VH: DVQLQESGPGLVKPSQSLSLTCSVTGYSITSGYFWNWIRQFPGNKLEWMGYISYDGSNNSNPSLKNRISFTRDTSKNQFFLKFNSVTTDDSAAYYCTRGTTGFAYWGQGTLVTVSA
VL: QIVLTQSPAIMSASPGEKVTISCSASSSVSYMNWYQQKPGSSPKPWIYHTSNLASGVPARFSGSGSGTSYSLTISSMEAEDAATYYCQQYHSYPPTFGGGTKLEIK
notes: also called IE11
B2: monoclonal antibody of hybridoma clone 1E11 (antibody, mouse IgG1, V domains shown)
VH: B1 VH
VL: B1 VL
notes: Mouse IgG1 kappa, immunization BCA34.hC35; See the note of 1F2 for a translation; also called IE11
B3: monoclonal antibody of hybridoma clone 1F2 (antibody, V domains shown)
VH: B1 VH
VL: B1 VL
notes: also called IF2
B4: 1F2 monoclonal antibody (antibody, V domains shown)
VH: B1 VH
VL: B1 VL
notes: Mouse IgG1 kappa; In the VL, one printed codon 'get' was read as gct; also called IF2
B5: 1B3 monoclonal antibody (antibody, mouse IgG1, V domains shown)
VH: EVQLQESGPSLVKPSQTLSLTCSVTGDSITSGYWNWIRKFPGNKLEYVGYISYSGGTYYNPSLKSRISITRDTSKNHYYLQLNSVTTEDTATYYCARGAYYGGAFFPYFDVWGAGTTVTVSS
VL: DVQITQSPSFLAASPGETITINCRASKYISKHLVWYQEKPGETKKLLIYSGSTLQSGLPSRFSGSGSGTDFTLTISSLEPEDFAMYYCQQHNEYPLTFGAGTKLELK
notes: Mouse IgG1, tested as hybridoma supernatant
B6: 3E10 monoclonal antibody (antibody, V domains shown)
VH: B5 VH
VL: B5 VL

Legend:
[1] = biological target: soluble HLA-B*0702 (human); experiment: fluorescence polarization competition against the fluorescent labeled standard on soluble HLA-B*0702
[2] = biological target: HLA-A*0201 (human); experiment: fluorescence polarization competition, test peptide at 100 uM against the fluorescent-labeled peptide on HLA-A*0201, from Ymax
[3] = biological target: T5, Beta galactosidase (negative control protein purified from E. coli) (UniProt P00722 1-1024 = β-galactosidase, limits assumed); experiment: ELISA, hybridoma supernatant on coated protein, anti-mouse HRP
T5 construct: also called β-galactosidase; p-galactosidase

[4] = biological target: T1, purified recombinant C35 protein …; experiment: ELISA, hybridoma supernatant on coated C35 protein, anti-mouse HRP
[5] = biological target: T2, C35 protein, bacterially synthesized …; experiment: ELISA screen of hybridoma supernatants on plates coated with C35 protein
[6] = biological target: T3, C35 as expressed by cells or tissue …; experiment: immunohistochemistry of breast tumour sections
[7] = biological target: T4, C35 polypeptide, as expressed by human …; experiment: immunohistochemistry on paraffin sections, affinity purified antibody

T5 sequence (P00722 whole entry): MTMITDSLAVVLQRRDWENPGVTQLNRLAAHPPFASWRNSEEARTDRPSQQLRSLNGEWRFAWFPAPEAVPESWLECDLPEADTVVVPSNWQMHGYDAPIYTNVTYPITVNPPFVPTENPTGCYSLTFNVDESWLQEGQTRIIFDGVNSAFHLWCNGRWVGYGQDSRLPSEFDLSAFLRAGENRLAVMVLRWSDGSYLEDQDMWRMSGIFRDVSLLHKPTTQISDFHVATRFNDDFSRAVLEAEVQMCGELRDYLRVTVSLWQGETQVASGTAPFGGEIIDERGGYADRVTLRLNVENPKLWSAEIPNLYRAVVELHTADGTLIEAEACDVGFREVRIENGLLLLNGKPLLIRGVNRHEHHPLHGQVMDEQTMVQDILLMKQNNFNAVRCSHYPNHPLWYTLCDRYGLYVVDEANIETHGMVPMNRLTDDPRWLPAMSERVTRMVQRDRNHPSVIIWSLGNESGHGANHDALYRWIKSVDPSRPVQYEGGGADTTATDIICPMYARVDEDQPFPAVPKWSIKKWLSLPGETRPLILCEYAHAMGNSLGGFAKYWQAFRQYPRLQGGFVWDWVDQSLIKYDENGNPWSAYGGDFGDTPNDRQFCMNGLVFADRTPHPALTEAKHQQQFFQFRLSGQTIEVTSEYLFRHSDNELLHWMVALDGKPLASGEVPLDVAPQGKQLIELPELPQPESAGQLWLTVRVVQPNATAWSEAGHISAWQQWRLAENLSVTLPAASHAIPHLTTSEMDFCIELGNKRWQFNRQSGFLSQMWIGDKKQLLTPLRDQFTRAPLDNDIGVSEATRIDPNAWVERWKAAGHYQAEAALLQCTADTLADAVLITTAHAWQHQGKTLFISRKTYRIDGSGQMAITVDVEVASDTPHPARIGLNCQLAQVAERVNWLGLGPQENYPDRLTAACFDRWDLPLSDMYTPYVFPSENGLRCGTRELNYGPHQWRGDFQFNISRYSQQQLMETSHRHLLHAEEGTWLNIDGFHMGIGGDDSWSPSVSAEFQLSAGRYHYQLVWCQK

Binder | % inhibition [1] [%] | % inhibition [2] [%] | other results
NSRPPAVIL [C35 peptide N107 to L115 (analog with Ala substituted for Cys at 112)] | 68.2 | – | –
SVAPPPEEV [C35 peptide S9 to V17] | – | 96.9 | –
B1 | – | – | binding result [3]: no binding; binding result [4]: binds
B2 | – | – | binding result [5]: binds
B3 | – | – | binding result [6]: binds; binding result [5]: binds
B4 | – | – | binding result [7]: binds; binding result [3]: no binding; binding result [4]: binds
B5 | – | – | binding result [3]: no binding
B6 | – | – | binding result [3]: no binding
KITNSRPPA [C35 peptide K104 to A112 (analog with Ala substituted for Cys at 112)] | 69.4 | – | –
EPGQTSVAP [C35 peptide E4 to P12] | 54.6 | – | –
GTGAFEIEI [C35 peptide G61 to I69] | – | 46.5 | –
FEIEINGQL [C35 peptide F65 to L73] | – | 74.8 | –
GAFEIEING (also called GAFEIEING) [C35 peptide G63 to G71] | 51.4 | – | –
SGVRIVVEY [C35 peptide S21 to Y29] | – | 90.8 | –
ITNSRPPCV [C35 peptide I105 to V113] | – | 86.4 | –
ITNSRPPAV [C35 peptide I105 to V113 (analog with Ala substituted for Cys at 112)] | 45.2 | – | –
TGAFEIEIN (also called TGAFEIEIN) [C35 peptide T62 to N70] | 38.8 | – | –
TYLELASAV [C35 peptide T38 to V46] | – | 47.3 | –
